Legend:
[1] = molecular target: NLuc-tagged GIRK (GIRK1/GIRK2-Luc) (human) (UniProt P48549); experiment: FRET or BRET; agonist-induced BRET in living HEK293T cells between Venus-Gβγ (acceptor) and GRK-Luc or GIRK-Luc (donor); co-expressed GPCR (DOR or D2R), PTX S1 and a PTX-insensitive Gα (C351A); agonist 10 μM, then antagonist; PBS with 0.5 mM MgCl2 and 0.1% glucose; read 3 min after ligand
[2] = molecular target: KirBac1.3-GIRK1 chimeric protein (GIRK chimera) in MSP1E3 nanodiscs (mouse | Burkholderia xenovorans) (UniProt P63250); experiment: NMR titration; 1H-13C HMQC (methyl-TROSY) of 11 μM Gα[ILVA]βγ with or without 22 μM (2 eq.) GIRK chimera-nanodiscs; 20 °C; 20 mM HEPES-NaOH pH 7.0, 150 mM KCl, 0.5 mM GDP, 0.1 mM TCEP; signal intensity reductions; apparent Kd estimated
[3] = molecular target: T1, Gβγ dimer (human Gβ1 and His6-tagged human Gγ2 (C68S)) (human, UniProt P62873 1-340; P59768 1-71, C68S); experiment: SEC; purified Gα and Gβγ mixed with a slight excess of Gβγ; Gαβγ isolated by gel filtration on Superdex 200; conditions: both partners purified
T1 construct: G protein β1 subunit (Gβ1), human; G protein γ2 subunit (Gγ2), human; also called [non-labeled]βγ

Chain of NLuc-tagged GIRK (GIRK1/GIRK2-Luc) (human) (P48549 whole entry, chain 1 of 2): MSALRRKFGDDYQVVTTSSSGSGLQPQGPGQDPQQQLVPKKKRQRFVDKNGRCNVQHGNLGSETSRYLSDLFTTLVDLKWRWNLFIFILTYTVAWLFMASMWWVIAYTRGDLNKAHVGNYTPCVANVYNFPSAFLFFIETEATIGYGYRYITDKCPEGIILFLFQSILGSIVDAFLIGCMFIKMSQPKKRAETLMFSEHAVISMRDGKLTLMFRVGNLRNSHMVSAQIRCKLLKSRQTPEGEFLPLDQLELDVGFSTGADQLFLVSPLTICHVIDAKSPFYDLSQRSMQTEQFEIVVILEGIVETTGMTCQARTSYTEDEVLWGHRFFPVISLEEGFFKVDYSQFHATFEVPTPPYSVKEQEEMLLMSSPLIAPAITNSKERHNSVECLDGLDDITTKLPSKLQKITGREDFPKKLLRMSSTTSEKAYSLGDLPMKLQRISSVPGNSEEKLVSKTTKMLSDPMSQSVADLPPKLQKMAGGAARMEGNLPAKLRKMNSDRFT
Chain of NLuc-tagged GIRK (GIRK1/GIRK2-Luc) (human) (P48051 whole entry, chain 2 of 2, further chain): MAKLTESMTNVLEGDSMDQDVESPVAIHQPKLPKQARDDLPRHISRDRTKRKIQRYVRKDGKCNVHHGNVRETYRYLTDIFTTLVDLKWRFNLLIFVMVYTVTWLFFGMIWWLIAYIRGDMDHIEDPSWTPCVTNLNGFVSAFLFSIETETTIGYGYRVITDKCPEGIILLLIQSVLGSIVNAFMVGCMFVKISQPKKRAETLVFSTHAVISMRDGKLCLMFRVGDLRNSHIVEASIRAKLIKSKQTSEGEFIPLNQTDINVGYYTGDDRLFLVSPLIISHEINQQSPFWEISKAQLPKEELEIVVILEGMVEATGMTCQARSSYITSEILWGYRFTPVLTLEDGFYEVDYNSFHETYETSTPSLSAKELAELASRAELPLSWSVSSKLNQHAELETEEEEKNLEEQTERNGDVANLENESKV

With “Venus-tagged Gβγ (Venus 156–239-Gβ1 with Venus 1–155-Gγ2) (from UniProt P62873 1-340; P59768 1-71) (complex)” the specificity factor (ΔBRET GIRK/ΔBRET GRK), with D2R and Gαi3 [1] was 0.303, the specificity factor (ΔBRET GIRK/ΔBRET GRK), with D2R and Gαiqi [1] was 0.157 and the specificity factor (ΔBRET GIRK/ΔBRET GRK), with D2R and Gαqi5 [1] was 0.091. It also gave a specificity factor (ΔBRET GIRK/ΔBRET GRK), with D2R and Gαqiqi5 [1] of 0.236, a specificity factor (ΔBRET GIRK/ΔBRET GRK), with DOR and Gαi3 [1] of 0.286 and a specificity factor (ΔBRET GIRK/ΔBRET GRK), with DOR and Gαiqi [1] of 0.148. For the same molecule, the specificity factor (ΔBRET GIRK/ΔBRET GRK), with Gαi3-q(αA) [1] was 0.159, the specificity factor (ΔBRET GIRK/ΔBRET GRK), with Gαi3-q(αB) [1] was 0.248 and the specificity factor (ΔBRET GIRK/ΔBRET GRK), with Gαi3-q(αE) [1] was 0.249.

For “Gαi3βγ heterotrimer (Gαi3[ILVA] complexed with non-labeled Gβ1γ2(C68S)), GDP-bound (from UniProt P08754 1-354; P62873 1-340; P59768 1-71)”, the Kd [2] was over 200 µM.

B1: Gαiqi (chimeric Gα: GTPase domain of Gαi3, helical domain of Gαq), purified (other, human, UniProt P08754 1-62, looked up)
chain: MGCTLSAEDKAAVERSKMIDRNLREDGEKAAKEVKLLLLGAGESGKSTIVKQMKIIHEDGYSDEDKRGFTKLVYQNIFTAMQAMIRAMDTLKIPYKYEHNKAHAQLVREVDVEKVSAFENPYVDAIKSLWNDPGIQECYDRRREYQLSDSTKYYLNDLDRVADPAYLPTQQDVLRTRVKTTGIVETHFTFKDLYFKMFDVGGQRSERKKWIHCFEGVTAIIFCVALSDYDLVLAEDEEMNRMHESMKLFDSICNNKWFTETSIILFLNKKDLFEEKIKRSPLTICYPEYTGSNTYEEAAAYIQCQFEDLNRRKDTKEIYTHFTCATDTKNVQFVFDAVTDVIIKNNLKECGLY
notes: Gαi3, human, GTPase domain residues 1-62; Gαq, human, helical domain residues 69-180; Gαi3, human, GTPase domain residues 176-354; also called Gαiqi[ILVA]; source: E. coli BL21-CodonPlus (DE3)-RP, purified in the same way as the wild-type Gαi3; not shown: His10, N-terminal, cleaved
B1: binds [3].
